Experimental findings from patent US20120122107A1 (AARHUS UNIVERSITET, published 2012) are described below.

The target of one assay is T1, BSA (UniProt P02769 25-607).
T1 construct: also called BSA-coated surface
In words: SPR (BIAcore 3000), BSA-coated surface. The source says: Using SPR we determined the strength of the interaction between MAp44 and MBL, and compared it to that of MASP-3 and MBL. The purity of the rMBL has been reported before and the rMAp44 and rMASP-3 preparations were deemed pure by silver staining of SDS-PAGE gels (FIG. 4A). MBL was coupled to SPR chips at two different densities. An SPR chip, activated and blocked, was used for subtraction of the bulk refractive index background. A BSA-coated surface served as an extra background control, which gave no higher signal than the blank surface for both MASP-3 and MAp44. […] The measurements at the other coupling density of MBL were in agreement for both MASP-3 and MAp44. The calculated KDs were similar to the 0.8 nM reported for the binding of MASP-2 to MBL.
The SPR experiments were similar to those reported (7, 8). Using a BIAcore 3000 instrument (GE Healthcare®), binding of either rMASP-3 or rMAp44 was measured on 10940 RU of rMBL immobilized on a CM5 sensor chip (30 μg rMBL/ml used for derivatization), at a flow rate of 5 μl/min. Equivalent volumes of rMASP-3 and rMAp44 were injected at concentrations from 1 nM to 30 nM. Data were analyzed by global fitting to a 1:1 Langmuir binding model for several concentrations simultaneously using the BIAevaluation 4.1 software (GE Healthcare®).

Assay [1] has as its target T2, recombinant mannan-binding lectin (UniProt P11226 21-248).
T2 construct: Oligomeric collectin; also called rMBL; MBL
Kind of assay: affinity chromatography on rMBL-coupled beads.

T2 sequence (P11226 21-248 limits assumed): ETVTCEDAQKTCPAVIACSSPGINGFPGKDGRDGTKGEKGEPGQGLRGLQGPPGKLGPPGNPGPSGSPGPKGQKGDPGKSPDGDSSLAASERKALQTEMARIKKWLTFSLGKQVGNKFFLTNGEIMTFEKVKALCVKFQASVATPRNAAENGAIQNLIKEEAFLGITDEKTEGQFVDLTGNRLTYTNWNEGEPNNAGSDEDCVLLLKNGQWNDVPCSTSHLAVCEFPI
T1 sequence (P02769 25-607 limits assumed): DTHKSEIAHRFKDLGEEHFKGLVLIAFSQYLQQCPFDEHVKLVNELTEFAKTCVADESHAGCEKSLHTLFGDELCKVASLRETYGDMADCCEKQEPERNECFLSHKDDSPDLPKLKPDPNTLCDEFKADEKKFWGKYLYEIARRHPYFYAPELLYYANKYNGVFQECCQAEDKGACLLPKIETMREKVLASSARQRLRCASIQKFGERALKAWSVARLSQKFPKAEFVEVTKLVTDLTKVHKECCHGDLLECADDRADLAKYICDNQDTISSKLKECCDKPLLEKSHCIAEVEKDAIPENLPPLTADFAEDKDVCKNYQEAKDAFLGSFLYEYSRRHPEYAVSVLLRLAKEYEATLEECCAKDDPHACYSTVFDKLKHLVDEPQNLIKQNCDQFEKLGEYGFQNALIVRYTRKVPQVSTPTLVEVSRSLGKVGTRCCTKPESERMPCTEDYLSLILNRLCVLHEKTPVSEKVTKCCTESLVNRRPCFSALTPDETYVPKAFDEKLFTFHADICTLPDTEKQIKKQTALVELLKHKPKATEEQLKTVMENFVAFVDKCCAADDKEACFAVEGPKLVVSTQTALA

B1: recombinant MAp44 (mannan-binding lectin-associated protein of 44 kDa) (other)
chain: HTVELNNMFGQIQSPGYPDSYPSDSEVTWNITVPDGFRIKLYFMHFNLESSYLCEYDYVKVETEDQVLATFCGRETTDTEQTPGQEVVLSPGSFMSITFRSDFSNEERFTGFDAHYMAVDVDECKEREDEELSCDHYCHNYIGGYYCSCRFGYILHTDNRTCRVECSDNLFTQRTGVITSPDFPNPYPKSSECLYTIELEEGFMVNLQFEDIFDIEDHPEVPCPYDYIKIKVGPKVLGPFCGEKAPEPISTQSHSVLILFHSDNSGENRGWRLSYRAAGNECPELQPPVHGKIEPSQAKYFFKDQVLVSCDTGYKVLKDNVEMDTFQIECLKDGTWSNKIPTCKKNEIDLESELKSEQVTE
notes: Made by transient expression of the MAp44 cDNA (imaGenes clone IRAKp961F1682Q) in 293F cells and purified on rMBL-coupled beads; also called rMAp44; rMAP44
For the molecule B1, the binding result with BSA is given as “no binding”.

B2: recombinant MAp19 (other, UniProt O00187-2 16-185, looked up)
chain: TPLGPKWPEPVFGRLASPGFPGEYANDQERRWTLTAPPGYRLRLYFTHFDLELSHLCEYDFVKLSSGAKVLATLCGQESTDTERAPGKDTFYSLGSSLDITFRSDYSNEKPFTGFEAFYAAEDIDECQVAPGEAPTCDHHCHNHLGGFYCSCRAGYVLHRNKRTCSEQSL
notes: also called rMAp19; rMAP19
Take B2: the binding result in assay [1] is “binds”.
